Measured values as given in US20110027337A1 (IFXA A S, published 2011).

B1: fraction B11SI (cation exchange fraction from potato juice; major inhibitor KPI A-k1, SEQ ID NO:1) (other)
chain: ESPLPKPVLDTNGKELNPNLSYRIISTYWGALGGDVYLGKSPNSDAPCPDGVFRYNSDVGPSGTPVRFIPLSTNIFEDQLLNIQFNIPTPKLCVSYTIWKVGNINAPLRTMLLETGGTIGQADSSYFKIVKSSNFGYNLLYCPITRHFLCPFCRDDNFCAKVGVVIQNGKRRLALVNENPLDVLFQEV
notes: A chromatography fraction, not a pure protein; By nESI the highest peak is 20,830 Da (KPI A-k1 N-terminal variant 3), with further peaks for variants 4, 2 and 1; also called B1151

Columns and labels:
[1] = system: T1, PIfXa (KPI A-k1, Kunitz protease inhibitor purified from potato tuber, Solanum tuberosum cv. Kuras; SEQ ID NO:1)
T1 sequence: B1 chain

[2] = system: T2, fraction B11SI (cation exchange fraction from potato juice; major inhibitor KPI A-k1, SEQ ID NO:1)
T2 sequence: B1 chain

factor Xa (fXa) [3] = target: T3, factor Xa (fXa); assay: amidolytic activity assay: chromozym t-PA hydrolysis by 50 nM fXa, competitive inhibition fit (GraphPad Prism)
T3 chain 1: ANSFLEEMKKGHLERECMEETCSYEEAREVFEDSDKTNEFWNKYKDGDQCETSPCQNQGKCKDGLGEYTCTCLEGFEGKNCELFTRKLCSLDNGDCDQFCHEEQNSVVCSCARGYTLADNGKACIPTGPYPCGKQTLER
T3 chain 2: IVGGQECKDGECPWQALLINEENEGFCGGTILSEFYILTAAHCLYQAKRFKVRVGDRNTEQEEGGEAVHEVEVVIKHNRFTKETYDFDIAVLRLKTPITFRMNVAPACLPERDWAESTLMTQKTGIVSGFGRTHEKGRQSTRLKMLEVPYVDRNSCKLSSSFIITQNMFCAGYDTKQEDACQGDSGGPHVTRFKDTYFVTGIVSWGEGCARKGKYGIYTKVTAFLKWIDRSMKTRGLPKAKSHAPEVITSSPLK

factor Xa (fXa) [4] = target: T3, factor Xa (fXa); assay: amidolytic activity assay: chromozym t-PA hydrolysis by 50 nM fXa, competitive inhibition fit, in the presence of 1 U/mL heparin

| Molecule | reaction rate of chromozym t-PA hydrolysis by 25 nM fXa with 100 µg/mL PIfXa, no antibody (Ctrl without PIfXa 19.2) [1] | reaction rate of chromozym t-PA hydrolysis by fXa with PIfXa, before addition of antibody (sample PlfXa 1:1) [1] | reaction rate of chromozym t-PA hydrolysis by fXa with PIfXa, before addition of antibody (sample PlfXa 1:2.5) [1] | reaction rate of chromozym t-PA hydrolysis by fXa with PIfXa, before addition of antibody (sample PlfXa 1:5) [1] | reaction rate of chromozym t-PA hydrolysis by fXa with PIfXa, before addition of antibody (sample PlfXa 1:10) [1] | KM of chromozym t-PA hydrolysis by fXa with B11SI (fXa alone 0.23) [2] | KM of chromozym t-PA hydrolysis by fXa with B11SI and heparin [2] | Vmax of chromozym t-PA hydrolysis by fXa with B11SI (fXa alone 8.8 · 10^-2) [2] | Vmax of chromozym t-PA hydrolysis by fXa with B11SI and heparin [2] | Ki (factor Xa (fXa) [3]) | Ki (factor Xa (fXa) [4]) |
| --- | --- | --- | --- | --- | --- | --- | --- | --- | --- | --- | --- |
| factor Xa (fXa) | 2 µM/min | 2.1 µM/min | 2.1 µM/min | 2.2 µM/min | 1.4 µM/min | 1250 µM | 1180 µM | 0.026 mM/min | 0.023 mM/min | – | – |
| B1 | – | – | – | – | – | – | – | – | – | 0.114 µM | 0.101 µM |
